Among the data in the supplement of paper PMC10567573 are protein stability index values, retold here.

A short description of this data set: protein stability index of a GFP-peptide fusion (GPS, HEK-293T) (PSI 1-6); higher = more stable.
Where [1] appears, read: treatment: DMSO, c terminus: a fixed tail appended.
[2] abbreviates: treatment: MLN4924 1 uM, 8 h, c terminus: a fixed tail appended.

± gives the standard deviation.
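Note: 24-mer peptide tiles fused after GFP, lentivirally expressed, FACS-sorted into six equal bins by GFP/DsRed ratio, decoded by Illumina sequencing, PSI is the read-weighted mean bin number.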

With TPMNHQKAVNDETCKASHITSSVF [FBXO34], the protein stability index by setting is: under setting [1], 3.75 ± 0.075; under setting [2], 3.77 ± 0.1.

For TPVILVGCQLDLRYADLEAVNRAR [RHOBTB1], the protein stability index runs as follows: under setting [1], 2.46 ± 0.09; under setting [2], 2.34 ± 0.39.

TQCSEEDQCKINKQIYNLIHLDPR [FEM1B]: the protein stability index is, setting by setting: under setting [1], 3.48 ± 0.12; under setting [2], 3.4 ± 0.28.

Regarding TQLFIGGVTGWCTGFIFQKVGKLA [FUNDC2], the protein stability index runs as follows: under setting [1], 2.33 ± 0.39; under setting [2], 2.32 ± 0.28.

On to TRLYLRSHRPNMELCRDAAQFRLL [TEKT4], for which the protein stability index runs as follows: under setting [1], 2.16 ± 0.44; under setting [2], 2.27 ± 0.32.

TSIVYATEKKQTKVEFPEARIYEE [KCTD10] gave a protein stability index under setting [1] of 4.5 ± 0.12 and a protein stability index under setting [2] of 4.21 ± 0.55.

Take TSPSPERSLLLKYARTPTLDPDTM [TRIM14]: the protein stability index reads like this: under setting [1], 3.89 ± 0.66; under setting [2], 4.29 ± 0.32.

For the sequence TTCSTPLLNSPPSFVCWSRGFMEM [AUP1], the protein stability index was found to be 2.21 ± 0.26 under setting [1] and 2.33 ± 0.31 under setting [2].

Turning to TTGLQVPSAVRCLQKRGSATSSSN [FSD1], the protein stability index stood at 4.13 ± 0.12 under setting [1] and 3.99 ± 0.14 under setting [2].

As for TTHFQSIPDAFWWAVVTMTTVGYG [KCNA4], the protein stability index was 3.05 ± 0.88 under setting [1] and 2.96 ± 0.33 under setting [2].

As for TVCDDKWDLVSASVVCRELGFGSA [LOXL2], the protein stability index is, setting by setting: under setting [1], 2.54 ± 0.49; under setting [2], 2.7 ± 0.2.

On to TVLTRHSQPATPTPLQSRTSIVQA [PDLIM7], for which the protein stability index under setting [1] was 3.77 ± 0.093 and the protein stability index under setting [2] came out at 3.8 ± 0.28.

In turn, TVLVSVTVFDANDNAPVFTLPEYR [PCDHGA10] came in with a protein stability index under setting [1] of 2.76 ± 0.43 and a protein stability index under setting [2] of 2.58 ± 0.36.

On to TWWRVRNAANRTGYVPSNYVERKN [NCK2], for which the protein stability index reads like this: under setting [1], 2.86 ± 0.14; under setting [2], 3.06 ± 0.27.

In the case of VAALVVNFSQPVAGRPSLLRHDEV [NLN], the protein stability index was determined as 2.46 ± 0.49 under setting [1] and 2.48 ± 0.36 under setting [2].

With VAREYYSEADASHCIQQILEAVLH [CAMK2B], the protein stability index was determined as 2.29 ± 0.3 under setting [1] and 2.87 ± 0.49 under setting [2].

For the sequence VASAPLQPPVPSLSEVKPPPPPPP [TRADD], the protein stability index by setting is: under setting [1], 5.02 ± 0.15; under setting [2], 4.71 ± 0.34.

Regarding VDDLSVEWDAMGGKVQDIKAREKD [FSD1], the protein stability index worked out at 5.41 ± 0.33 under setting [1] and 5.5 ± 0.43 under setting [2].

On to VDTLTFQSQSLRDRARRFEEALRK [MTUS2], for which the protein stability index was determined as 4.08 ± 0.2 under setting [1] and 4.14 ± 0.22 under setting [2].

With VELPIVDSLHPRPPYLPLAVPEDL [FUT8], the protein stability index was determined as 4.24 ± 0.31 under setting [1] and 4.54 ± 0.22 under setting [2].

As for VENGDFNWIVPGKFLAFSGPHPKS [CDC14A], the protein stability index is 2.76 ± 0.41 under setting [1] and 2.92 ± 0.43 under setting [2].

VGDALEEVLSKALSQRTITVGVYE [GADD45A] returned a protein stability index under setting [1] of 2.54 ± 0.19 and a protein stability index under setting [2] of 2.47 ± 0.56.

VGKGEILASLQDGAAESPYGHPAG [RAB40B] returned a protein stability index under setting [1] of 4.66 ± 0.24 and a protein stability index under setting [2] of 4.76 ± 0.2.

As to VGSVSVDCGPSRADRCSPKEDQAW [FBXO34], the protein stability index was found to be 3.66 ± 0.25 under setting [1] and 4.06 ± 0.33 under setting [2].

With VHGIRSVGTAAVNMCLVATGGADA [IMPA1], the protein stability index amounted to 2.78 ± 0.35 under setting [1] and 2.93 ± 0.39 under setting [2].

For the sequence VIDILPNCVSSVYLYYDPDYSFLS [ATE1], the protein stability index by setting is: under setting [1], 3.35 ± 0.49; under setting [2], 3.1 ± 0.77.

As for VKMFYSFQDKRNLYLIMEFLPGGD [STK38L], the protein stability index is 3.11 ± 0.85 under setting [1] and 3.29 ± 0.4 under setting [2].

In the case of VKYPELVLEHSLDREEEAIHHLVL [PCDHGA10], the protein stability index came out at 2.6 ± 0.096 under setting [1] and 2.63 ± 0.36 under setting [2].

As to VLGGNLQGGELVVAYPYDLVRSPW [CPXM2], the protein stability index is, setting by setting: under setting [1], 2.13 ± 0.12; under setting [2], 2.48 ± 0.48.

On to VLKYFSHYMEENLMDGGDLPSVTD [PLK2], for which the protein stability index reads like this: under setting [1], 2.75 ± 0.52; under setting [2], 2.67 ± 0.64.

In turn, VLLGWTLHYFPFFLMGRVLYFHHY [POMT2] showed a protein stability index under setting [1] of 2.96 ± 0.29 and a protein stability index under setting [2] of 2.91 ± 0.42.

For VLNVAGEAGGKQKAVEEELDAEDR [SLC6A17], the protein stability index by setting is: under setting [1], 5.72 ± 0.17; under setting [2], 5.69 ± 0.16.

With VMYTIHMGCHGFRDPFECNMCGYH [IKZF1], the protein stability index by setting is: under setting [1], 2 ± 0.45; under setting [2], 2.4 ± 1.3.

Turning to VNLQHLDLLNNKLVTLPVSFAQLK [LRRC59], the protein stability index amounted to 2.12 ± 0.23 under setting [1] and 2.31 ± 0.3 under setting [2].

In the case of VNRFGTYPALASKNGKKWEILNFN [ACSBG2], the protein stability index reads like this: under setting [1], 2.81 ± 0.28; under setting [2], 2.71 ± 0.49.

Take VNYTQGLWEKVMPSRYAAIYNGGV [SLC19A2]: the protein stability index reads like this: under setting [1], 2.33 ± 0.18; under setting [2], 2.21 ± 0.47.

Take VPAQKFSALTFLRVDQDKDKDCSL [SMOC2]: the protein stability index stood at 4.19 ± 0.3 under setting [1] and 4.52 ± 0.31 under setting [2].

As for VPHWINSNTLGFGTEQAPYGMQTQ [ETS2], the protein stability index runs as follows: under setting [1], 2.58 ± 0.41; under setting [2], 2.88 ± 0.22.

Consider VPVSFIFIFTFVKKKKIGFYFEVC [PCDHGA10], for which the protein stability index under setting [2] was 1.82 ± 0.39.

On to VQGIGIPLVTAIEIVSIWILSFIL [EDNRA], for which the protein stability index reads like this: under setting [1], 3.02 ± 0.63; under setting [2], 2.42 ± 0.49.

In turn, VRFDGYVIDGATALWCAAGAGHFE [FEM1B] had a protein stability index under setting [1] of 2.91 ± 0.6 and a protein stability index under setting [2] of 2.92 ± 0.64.

Regarding VSAEGSHPDPAPFCADNPSELPPP [DVL3], the protein stability index worked out at 5.25 ± 0.27 under setting [1] and 5.32 ± 0.18 under setting [2].

Regarding VSGGSRSLNMSRRDSESTRHDSET [PHTF1], the protein stability index under setting [1] amounted to 5.25 ± 0.26 and the protein stability index under setting [2] stood at 5.5 ± 0.14.

For the sequence VTEHPLELIRVEVEILDLNDNSPS [PCDHGC5], the protein stability index stood at 2.92 ± 0.29 under setting [1] and 3 ± 0.41 under setting [2].

With VTSVSIELEKNFSNFPRQYFALRK [TRIM39], the protein stability index runs as follows: under setting [1], 2.47 ± 0.25; under setting [2], 2.5 ± 0.15.

Consider VVACDFSPDGALLATASYDTRVYI [WSB1], for which the protein stability index turned out to be 3.41 ± 0.6 under setting [1] and 2.74 ± 0.83 under setting [2].

In turn, VVRYLLEQRADPNAKAHCGATALH [FEM1B] came in with a protein stability index under setting [1] of 2.23 ± 0.21 and a protein stability index under setting [2] of 2.34 ± 0.18.

VYLSPRDDGYSTKDSYSSRDYPSS [RBMX]: the protein stability index is, setting by setting: under setting [1], 3.21 ± 0.27; under setting [2], 3.38 ± 0.43.

For the sequence VYSVSVDQKERCIIVRTTNKKYYK [DPCD], the protein stability index came out at 2.14 ± 0.14 under setting [1] and 2.21 ± 0.38 under setting [2].

As to WEYMHSPSENSKEAEILEVLRHPR [CPOX], the protein stability index by setting is: under setting [1], 3.99 ± 0.12; under setting [2], 4.07 ± 0.32.

In the case of WLQNTHVYSWPKNKKNILLRLLRE [TRAF3IP2], the protein stability index is, setting by setting: under setting [1], 2.08 ± 0.58; under setting [2], 2.38 ± 0.42.

Turning to WLYYYAYKDFLWFFSKRFKSAAML [SOAT1], the protein stability index came out at 2.15 ± 0.34 under setting [1] and 2.29 ± 0.44 under setting [2].

For the sequence WPGASGSAQSLDRLGIMGAGLGA [ATP23], the protein stability index reads like this: (treatment: DMSO, c terminus: native) 2.55 ± 0.26; (treatment: MLN4924 1 uM, 8 h, c terminus: native) 2.43 ± 0.37.

On to WTDSEVDSSCSGQPIHLWQFLKEL [SPDEF], for which the protein stability index came out at 2.93 ± 0.24 under setting [1] and 3.1 ± 0.39 under setting [2].

WTLQRRLTRLRTASGHEPGGSAVC [PLEKHN1]: the protein stability index is, setting by setting: under setting [1], 3 ± 0.23; under setting [2], 3.06 ± 0.22.

In turn, WVGTGLAAALAGLVGLATAAFGHV [CPOX] displayed a protein stability index under setting [1] of 2.13 ± 0.37 and a protein stability index under setting [2] of 2.16 ± 0.3.

In the case of YAHQMVRTDSREQKLDAFLQPLSK [MLH1], the protein stability index runs as follows: under setting [1], 2.98 ± 0.3; under setting [2], 3.35 ± 0.35.

Sequence YARQHCPLKNPTFLDYVRPRSWTC [SOAT1] yielded a protein stability index under setting [1] of 2.12 ± 0.46 and a protein stability index under setting [2] of 2.14 ± 0.53.

Take YDGYRLRVEFPRSGRGTGRGGGGG [SRSF1]: the protein stability index by setting is: under setting [1], 3.81 ± 0.26; under setting [2], 3.99 ± 0.25.

As to YEADCLAAAYGGKAAPAAPPAARP [CEBPB], the protein stability index reads like this: under setting [1], 4.49 ± 0.15; under setting [2], 4.6 ± 0.2.

For YETVAAATSESTTVEPGKLDVGAT [DRICH1], the protein stability index reads like this: under setting [1], 5.36 ± 0.2; under setting [2], 5.43 ± 0.32.

For the sequence YFATFYSCTPRMNRRMVGPDVIPL [FAM189A2], the protein stability index reads like this: under setting [1], 2.72 ± 0.27; under setting [2], 2.54 ± 0.55.

As to YGHDYPRAAYQQVIQPALPGQPLP [TRAF3IP2], the protein stability index reads like this: under setting [1], 2.55 ± 0.71; under setting [2], 3.25 ± 0.69.

Regarding YHPVKIGDLFNGRYHVIRKLGWGH [SRPK2], the protein stability index is 2.79 ± 0.55 under setting [1] and 2.24 ± 0.22 under setting [2].

Consider YKPVVLLQGLSLIVTWFMLLYAQG [SLC19A2], for which the protein stability index worked out at 2.94 ± 0.42 under setting [1] and 3.02 ± 0.29 under setting [2].

For the sequence YLTVVFEHDAWFIFFMAAFAFSNG [SLC29A1], the protein stability index reads like this: under setting [1], 3.18 ± 0.41; under setting [2], 2.92 ± 0.59.

On to YNSSRFGEGVERELFVREPTGRLP [MYORG], for which the protein stability index is, setting by setting: under setting [1], 3.62 ± 0.22; under setting [2], 3.73 ± 0.43.

Regarding YPNYEFISDNSISWSAGLHNRYTE [FUT8], the protein stability index runs as follows: under setting [1], 2.51 ± 0.1; under setting [2], 2.72 ± 0.36.

Regarding YPTSDQEGDPGSKQPRKKRGRYRQ [LCOR], the protein stability index worked out at 5.3 ± 0.23 under setting [1] and 5.45 ± 0.27 under setting [2].

YQKAAEEVEAKFKRYESHPVCADL [CHCHD3] showed a protein stability index under setting [1] of 4.26 ± 0.14 and a protein stability index under setting [2] of 4.25 ± 0.28.

Turning to YRHVMLPKDIAKLVPKTHLMSESE [CKS1B], the protein stability index amounted to 3.75 ± 0.32 under setting [1] and 3.85 ± 0.23 under setting [2].

Consider YSCACLASGSVLRLVDAVLGAEIR [HDAC6], for which the protein stability index reads like this: under setting [1], 3 ± 0.68; under setting [2], 2.89 ± 0.66.
